Publication PMC2572730, “Structural Basis for the Recognition of Histone H4 by the Histone-Chaperone RbAp46” (Structure(London, England:1993), 2008)

Key:
[1] = target: T1, RbAp46 (pRB-associated protein p46), human, recombinant (human, UniProt Q16576 1-411); assay: other fluorescence titration; intrinsic tryptophan fluorescence of 45 nM RbAp46, increasing H3/H4 or H4 peptide (16-41); 50 mM Tris-HCl (pH 7.5), 200 mM NaCl, 5 mM DTT, 25°C; excitation 295 nm, emission 435 nm; single binding-site model; KD for H3/H4 called apparent; settings: both partners purified
T1 construct: RbAp46 (RBBP7), human; also called RBBP7; RbAb46; source: recombinant, expressed and purified as described previously (Verreault et al., 1998; Berger et al., 2004)

[2] = target: T1, RbAp46 (pRB-associated protein p46), …; assay: SPR; RbAp46 crosslinked to a CM5 chip, N-terminal histone H4 peptide as analyte; 10 mM HEPES (pH 7.4), 150 mM NaCl, 0.0005% (v/v) Surfactant P20; settings: both partners purified

T1 sequence (Q16576 1-411): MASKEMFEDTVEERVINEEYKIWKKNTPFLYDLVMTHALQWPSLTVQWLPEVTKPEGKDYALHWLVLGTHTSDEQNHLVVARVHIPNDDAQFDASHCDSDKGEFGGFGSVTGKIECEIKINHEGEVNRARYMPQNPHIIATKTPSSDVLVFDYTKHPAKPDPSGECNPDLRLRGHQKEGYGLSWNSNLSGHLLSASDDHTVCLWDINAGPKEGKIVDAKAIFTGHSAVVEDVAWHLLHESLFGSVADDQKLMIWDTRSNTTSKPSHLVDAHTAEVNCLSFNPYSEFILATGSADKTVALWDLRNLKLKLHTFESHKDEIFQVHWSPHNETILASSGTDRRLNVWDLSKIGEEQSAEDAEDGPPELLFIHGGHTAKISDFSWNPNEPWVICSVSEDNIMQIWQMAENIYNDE

Kd [1]: 1.1 µM | Kd [2]: ~1 µM
B1: synthetic histone H4 peptide (residues 16-41) (peptide)
peptide: not shown
notes: histone H4 residues 16-41; also called N-terminal histone H4 peptide; H4(16-41); source: synthetic peptide
